Non-standard residues stand in square brackets, D forms with d. Primed or numbered codes have the meaning given here. No end group written: not given here. Lys(N3)′ = its azide, alkyne or alkene has reacted where a group follows in round brackets; DBCO′ = not defined here; F′ = aminophenylalanine; Ahx = NCCCCCC(=O)O
Key:
[1] = test system: CD8 T cell responses; test: CD8 T cell response of mice vaccinated with Adpgk peptide antigen conjugates, intracellular cytokine staining for IFN-g; type: in vivo, C57BL/6 mice; details: SC route; vaccinated day 0, 14, 28; whole blood
Description: Mice were vaccinated on day 0, 14, and 28. CD8 T cell responses were measured on day 12, 21, and 35 from whole blood using an intracellular cytokine staining assay for IFN-g production;

[2] = test system: CD8 T cell responses; test: CD8 T cell response of mice vaccinated with Cpne1 peptide antigen conjugates, intracellular cytokine staining for IFN-g; type: in vivo, C57BL/6 mice; details: SC route; vaccinated day 0, 14, 28; whole blood
Description: Mice were vaccinated on day 0, 14, and 28. CD8 T cell responses were measured on day 7, 21, 35, and 42 from whole blood using an intracellular cytokine staining assay for IFN-g production; and
To evaluate the suitability of immunogenic compositions based on peptide antigen fragments comprising aryl amines, mice were either vaccinated with peptide antigen conjugates of formula C-B1-A-B2-L-H, either comprising a charged moiety with positive charge, […] Tyr-Ser-Pro-Val-Cit-Lys(N3-DBCO)-Glu(2B)-Trp-Glu(2B)-Trp-Glu(2B)—NH2 (SEQ ID NO: 76) or a charged moiety with negative charge and a B2 comprised of amino acids bearing aryl amines, i.e., Ac-Glu-Glu-Glu-Glu-Glu-Val-Cit-[…]Try-[…]Cit-Phe(NH2)-Phe(NH2)-Phe(NH2)-Phe(NH2)-Lys(N3-DBCO)-Glu(2B)-Trp-Glu(2B)-Trp-Glu(2B)—NH2 (SEQ ID NO: 42), wherein Phe(NH2) is para-amino-phenylalanine.

[3] = Particle size and stability of amphiphilic carrier molecules by dynamic light scattering; type: physicochemical; details: PBS pH 7.4, 0.5 mg/mL, peptide-based linear carriers
Description: This reaction scheme was used to prepare different compositions of amphiphilic carrier molecules that were characterized for the capacity to form stable nanoparticle micelles in aqueous buffer, PBS pH 7.4, at a concentration of 0.5 mg/mL of amphiphilic carrier molecule. The results of these studies are summarized below according to the chemical composition and architecture of the amphiphilic carrier molecule.
A series of linear amphiphilic carriers of formula C-B-L-H, wherein the charged moiety (C) and spacer (B) comprises peptides, i.e., poly(lysine) and poly(serine-co-glycine), respectively, with varying hydrophobic block composition were evaluated for particle size and stability by dynamic light scattering. […]

Substance: Ac-Glu-Glu-Glu-Glu-Glu-Glu-Glu-Val-Cit-Gly-Ile-Pro-Val-His-Leu-Glu-Leu-Ala-Ser-Met-Thr-Asn-Met-Glu-Leu-Met-Ser-Ser-Ile-Val- His-Gln-Gln-Val-Phe-Pro-Thr-Ser-Pro-Val-Cit-Phe(NH2)-Phe(NH2)-Phe(NH2)-Phe(NH2)-Lys(N3-DBCO)-Glu(2B)-Trp-Glu(2B)-Trp-Glu(2B)—NH2 (EEEEEEEVXGIPVHLELASMTNMELMSSIVHQQVFPTSPVXXXXXX; N-acetyl, citrulline, Phe(NH2), DBCO click, Glu(2B), amide; SITE 1 Wherein Glu is modified with an acetyl group at the N-terminus; SITE 9 citrulline (Cit); SITE 41 citrulline (Cit); SITE 42..45 para-amino-phenylalanine; SITE 46 azido-lysine (Lys(N3))) [SEQ ID NO: 40]
- CD8 T cell responses [1]: CD8 T cell responses were induced in all animals

Substance: Ac-Glu-Glu-Glu-Glu-Glu-Val-Cit-Asp-Phe-Thr-Gly-Ser-Asn-Gly-Asp-Pro-Ser-Ser-Pro-Try-Ser-Leu-His-Tyr-Leu-Ser-Pro-Thr-Gly-Val-Asn-Glu-Tyr-Ser-Pro-Val-Cit-Phe(NH2)-Phe(NH2)-Phe(NH2)-Phe(NH2)-Lys(N3-DBCO)-Glu(2B)-Trp-Glu(2B)-Trp-Glu(2B)—NH2 (EEEEEVXDFTGSNGDPSSPYSLHYLSPTGVNEYSPVXXXXXX; acetyl, citrulline, DBCO click conjugate, amidated; SITE 1 Wherein Glu is modified with an acetyl group at the N-terminus; SITE 7 citrulline (Cit); SITE 37 citrulline (Cit); SITE 38..41 para-amino-phenylalanine.; SITE 42 azido-lysine (Lys(N3))) [SEQ ID NO: 42, negatively charged Cpne1 peptide antigen conjugate]
- CD8 T cell responses detected in vaccinated animals [2]: detected in all vaccinated animals
- CD8 T cell responses, tris salts of the negatively charged conjugate [2]: CD8 T cell responses were induced in all animals

Substance: KKK-SGSGSGSGSGSGSGSGSGSGSGSG-(Lys(N3-DBCO))-Ahx-(F′)5: peptide-based linear amphiphilic carrier molecule C-B-L-H (chain 1 KKKSGSGSGSGSGSGSGSGSGSGSGSG[Lys(N3)′](DBCO′)[Ahx]; chain 2 [F′][F′][F′][F′][F′]; also: chain 2 (F′)5 follows Ahx of chain 1)
- Size (diameter, nm) [3]: 1013 nm

Substance: KKK-SGSGSGSGSGSGSGSGSGSGSGSG-(Lys(N3-DBCO))-Ahx-(F′)10: peptide-based linear amphiphilic carrier molecule C-B-L-H (chain 1 KKKSGSGSGSGSGSGSGSGSGSGSGSG[Lys(N3)′](DBCO′)[Ahx]; chain 2 [F′][F′][F′][F′][F′][F′][F′][F′][F′][F′]; also: chain 2 (F′)10 follows Ahx of chain 1)
- Size (diameter, nm) [3]: 3839 nm

Substance: KKK-SGSGSGSGSGSGSGSGSGSGSGSG-(Lys(N3-DBCO))-Ahx-(F′)20: peptide-based linear amphiphilic carrier molecule C-B-L-H (chain 1 KKKSGSGSGSGSGSGSGSGSGSGSGSG[Lys(N3)′](DBCO′)[Ahx]; chain 2 [F′][F′][F′][F′][F′][F′][F′][F′][F′][F′][F′][F′][F′][F′][F′][F′][F′][F′][F′][F′]; also: chain 2 (F′)20 follows Ahx of chain 1)
- Size (diameter, nm) [3]: 1521 nm

Substance: KKK-SGSGSGSGSGSGSGSGSGSGSGSG-(Lys(N3-DBCO))-Bis(Ahx-F′10)2: peptide-based linear amphiphilic carrier molecule C-B-L-H (chain 1 KKKSGSGSGSGSGSGSGSGSGSGSGSG[Lys(N3)′](DBCO′)[Ahx]; chain 2 [F′][F′][F′][F′][F′][F′][F′][F′][F′][F′]; also: two Ahx-F′10 arms, branching not given here, one arm shown)
- Size (diameter, nm) [3]: 2683 nm

Substance: KKKKKKK-SGSGSGSGSGSGSGSGSGSGSGSG-(Lys(N3-DBCO))-Ahx-(F′)5: peptide-based linear amphiphilic carrier molecule C-B-L-H
- Size (diameter, nm) [3]: 477 nm

Substance: KKKKKKK-SGSGSGSGSGSGSGSGSGSGSGSG-(Lys(N3-DBCO))-Ahx-(F′)20: peptide-based linear amphiphilic carrier molecule C-B-L-H
- Size (diameter, nm) [3]: 32 nm

Substance: Lys-Lys-Lys-Lys-Lys-Lys-Lys-Lys-Lys-Val-Arg-Asp-Phe-Thr-Gly-Ser-Asn-Gly-Asp-Pro-Ser-Ser-Pro-Tyr-Ser-Leu-His-Tyr-Leu-Ser-Pro-Thr-Gly-Val-Asn-Glu- Tyr-Ser-Pro-Val-Cit-Lys(N3-DBCO)-Glu(2B)-Trp-Glu(2B)-Trp-Glu(2B)—NH2 (KKKKKKKKKVRDFTGSNGDPSSPYSLHYLSPTGVNEYSPVXX; citrulline, DBCO click conjugate, amidated; SITE 41 citrulline (Cit); SITE 42 azido-lysine (Lys(N3))) [SEQ ID NO: 76, positively charged Cpne1 peptide antigen conjugate]
- CD8 T cell responses detected in vaccinated animals [2]: detected in all vaccinated animals
